Source: publication PMC7950211 (2021)

Experiments:
Experiment in all cases: SPR
[1] = molecular target: T1, PF3D7_0721100, P. falciparum predicted secreted protein, recombinant (P. falciparum, biotin (enzymatic monobiotinylation))
T1 chain: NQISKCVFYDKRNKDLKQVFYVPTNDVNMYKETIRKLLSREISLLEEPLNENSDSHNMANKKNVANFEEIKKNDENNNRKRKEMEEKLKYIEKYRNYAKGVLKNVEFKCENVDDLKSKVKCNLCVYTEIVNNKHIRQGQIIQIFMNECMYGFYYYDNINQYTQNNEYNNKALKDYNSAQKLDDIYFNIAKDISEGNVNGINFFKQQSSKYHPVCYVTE

[2] = molecular target: T2, parasite-infected erythrocyte surface protein 15 (PIESP15), P. falciparum, recombinant ectodomain (P. falciparum, biotin (enzymatic monobiotinylation of the bait form))
T2 chain: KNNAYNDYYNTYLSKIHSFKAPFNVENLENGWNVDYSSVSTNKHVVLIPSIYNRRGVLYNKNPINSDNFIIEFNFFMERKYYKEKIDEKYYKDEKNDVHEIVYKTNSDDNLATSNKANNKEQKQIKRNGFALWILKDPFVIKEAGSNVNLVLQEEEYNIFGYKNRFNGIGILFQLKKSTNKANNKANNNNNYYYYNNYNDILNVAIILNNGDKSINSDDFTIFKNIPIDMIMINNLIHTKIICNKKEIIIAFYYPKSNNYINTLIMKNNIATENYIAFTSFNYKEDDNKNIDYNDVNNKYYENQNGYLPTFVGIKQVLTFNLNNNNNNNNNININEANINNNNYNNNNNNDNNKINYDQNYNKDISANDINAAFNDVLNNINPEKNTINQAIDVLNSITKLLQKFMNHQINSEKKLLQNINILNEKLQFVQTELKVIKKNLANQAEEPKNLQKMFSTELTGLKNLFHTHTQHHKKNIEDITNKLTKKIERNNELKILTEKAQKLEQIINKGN

[3] = molecular target: T3, PF3D7_0526900, P. falciparum p24 family protein, recombinant ectodomain (P. falciparum, biotin (enzymatic monobiotinylation of the bait form))
T3 chain: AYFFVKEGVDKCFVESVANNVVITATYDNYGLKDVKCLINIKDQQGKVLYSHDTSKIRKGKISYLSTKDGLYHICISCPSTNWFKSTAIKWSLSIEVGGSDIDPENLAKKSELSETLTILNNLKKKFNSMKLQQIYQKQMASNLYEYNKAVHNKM

B1: CelTOS, P. falciparum, recombinant (natural protein)
chain: FRGNNGHNSASSLYNGAQFIEQLNNAFTSAFLESQSMNKIGDDLAETISNELVSVLQKNSPTFLESSFDIKSEVKKHAKSMLKELIKVGLPSFENLVAENVKPPKVDPATYGIIVPVLTSLFNKVETAVGAKVSDEIWNYNSPDVSESEESLSDDFFD
modifications: biotin (enzymatic monobiotinylation of the bait form)
koff [1]: 0.025 s⁻¹

B2: PF3D7_0702900, P. falciparum secreted protein with tandem EF-hand domains, recombinant (natural protein)
chain: QDNKNKVEETHEEQGEMTQEEKDEIYSEFVDYDLNKDGLIDAEEIVVTLKNMKKADFINFFNKVDLDSSGTISIDEYMLFINSN
modifications: biotin (enzymatic monobiotinylation of the bait form)
koff [2]: 0.035 s⁻¹

B3: PF3D7_0422100, P. falciparum p24 family protein, recombinant ectodomain (domain or fragment)
chain: NFVLSNANTNNVNKNGANKKNNANNNNMNKAGDKKKATKGKKGNANDNVNEFNFNFNDLLNEINNAATNDNNNNNNDNNNDNNNNNNNNNNNYNGKNEINENNFNEEYNKLEKNFQMNAEDDDNNRGDINMDQFNEKKNNLNEDNNKMKPNANDYQYNENDADTDSEEDLTNIWNKNMQNFEPSTLLTFEIPSNSEEYLFEEVPEVNTYFRGVFYSNNEADDNIIEFLISDPDGQVIYKKEASEGIFYFYTKKVGIYTLTLKNNKWMGKKLTTVALGLGENPSLRSDHVKDFTNYIQRIVAETKKLKNEIKYLSSKHMRHIEKMKKITNK
modifications: biotin (enzymatic monobiotinylation of the bait form)
koff [3]: 0.23 s⁻¹
